Results on 3 molecules are retold here after US20150218281A1 (Ablynx, published 2015).

B1: recombinant human OX40L (extracellular domain, R&D Systems) (ligand)
chain: QVSHRYPRIQSIKVQFTEYKKEKGFILTSQKEDEIMKVQNNSVIINCDGFYLISLKGYFSQEVNISLHYQKDEEPLFQLKKVRSVNSLMVASLTYKDKVYLNVTTDNTSLDDFHVNGGELILIHQNPGEFCVL
notes: also called hOX40L; rec. hOX40L

The target in one experiment is T1, OX40L01E07.
T1 construct: monovalent Nanobody from E. coli; not shown: C-terminal c-myc and His6 tag
The experiment is described as follows: competition ELISA: fixed concentration of OX40L01E07 pre-incubated with a concentration series of soluble hOX40L, then added to biotinylated hOX40L captured on neutravidin; bound Nanobody detected with rabbit anti-VHH antiserum and HRP goat anti-rabbit IgG, OD450nm. The method, then: The binding of OX40L blocking Nanobodies to other TNF family members was tested in a competition ELISA.
Detection was done using sTMB (SDT Reagents, Baesweiler, Germany), the reaction was stopped with 1M HCl and absorbance was determined at 450 nm.

The target in experiment [1] is B1. Nature of the experiment: cell-based or functional assay.
Experiment [2] addresses T2, biotinylated hOX40L (R&D Systems, biotinylated in house) (human, UniProt P23510 51-183, biotinylated with Sulfo-NHS-LC-Biotin, sites not stated).
T2 construct: same bought protein as m10, biotinylated; also called biotinylated OX40L
T2 sequence: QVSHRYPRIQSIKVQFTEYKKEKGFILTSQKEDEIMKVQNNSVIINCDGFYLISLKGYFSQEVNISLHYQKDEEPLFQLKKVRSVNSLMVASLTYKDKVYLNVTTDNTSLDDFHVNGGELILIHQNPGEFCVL
The experiment is described as follows: hOX40L/hOX40 AlphaScreen, assay 3, native. The procedure: (§1) Next, streptavidin donor beads were added and incubated for an additional 1 hour. Fluorescence was measured by reading plates on the EnVision Multilabel Plate Reader using an excitation wavelength of 680 nm and an emission wavelength of 520 nm.
(§2) In the TSA assay, Nanobodies were diluted to a concentration of 0.2 mg/ml and melting temperature (Tm) was determined at different pH by stepwise increase in temperature in presence of Sypro Orange, a dye that binds to […] residues that become exposed upon unfolding of the protein, using the Lightcycler (Roche) for detection. […] In SEC analysis, the Nanobodies were analyzed on a Phenomenex matrix to allow detection of multimers, aggregates or ‘stickyness’.
In general terms: Alpha assays give light when donor and acceptor beads are brought close together.

For experiment [3], the target named is T2, biotinylated hOX40L (R&D Systems, …). The experiment is described as follows: hOX40L/hOX40 AlphaScreen, assay 2, native; assay 2, native (not Tm + 10° C.).
The target is the same in experiment [4]. The experiment is described as follows: hOX40L/hOX40 AlphaScreen, assay 2, heated at Tm+10 C. The procedure:
as §1, §2

The target is the same in experiment [5]. Nature of the experiment: hOX40L/hOX40 AlphaScreen, assay 3, heated at Tm+10 C. The method, then: as §1, §2
Experiment [6] shares this target. The experiment is described as follows: hOX40L/hOX40 AlphaScreen.

T1 sequence (VHH, as listed by the source): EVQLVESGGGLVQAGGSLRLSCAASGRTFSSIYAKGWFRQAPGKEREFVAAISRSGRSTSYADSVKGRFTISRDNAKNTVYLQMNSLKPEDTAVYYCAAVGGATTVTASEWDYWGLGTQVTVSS

B1: in the experiment with OX40L01E07, the “IC50 (read off the curve)” value is roughly 0.8 nM.

B2: OX40L056 (VHH, not shown: small tags and cut ends)
VHH: DVQLVESGGGLVQPGGSLRLSCAASRSIGRLDRMGWYRHRPGKPRELVATITGGSSINYADSVKGRFTISRDNSKNTVYLQMNSLRPEDTAVYYCNFNKYVTSRDTWGQGTLVTVSS
Usually IC50 stands for the point on the concentration scale where inhibition reaches its midpoint. Regarding B2, in experiment [1], the “IC50, T cell assay with rec. hOX40L” value worked out at 135 nM. The IC50 in experiment [2], in experiment [3], in experiment [4] and in experiment [5] was 1.12 nM each time.

B3: OX40L082 (VHH, not shown: small tags and cut ends)
VHH: EVQLVESGGGLVQPGGSLRLSCAASRSIGRLDRMGWYRHRPGEPRELVATITGGSSINYGDSVKGRFTISIDNSKNTVYLQMNSLRPEDTAVYYCNFNKYVTSRDTWGQGTLVTVSS
As for B3, the IC50 in experiment [2] and in experiment [5] was 0.14 nM each time. Also, the “fold decrease in potency compared with the parental Nanobody OX40L15B07” value in experiment [6] was roughly 2 fold.
